# Data reported in the MegaScale stability set (Tsuboyama et al. 2023).
# B1: 2K2A (parent)
# chain: ELREAFRLYDKEGNGYISTDVMREILAELDETLSSEDLDAMIDEIDADGSGTVDFEEFMGVMT
# B2: 6YSE (parent)
# chain: HERALMVNRLQKLTRMLRVHPDPKWKQEQQELIKRLK
# Variants of: B1
# Assay: folding stability dG (cDNA display proteolysis); higher = more stable
# Conditions: PBS, room temperature
row,Variant,folding stability dG [kcal/mol]
1,T63S,1.88
2,T63V,1.82
3,T63W,1.33
4,T63Y,1.58

# Variants of: B2
# Assay: as above
# Conditions: PBS, room temperature
row,Variant,folding stability dG [kcal/mol]
1,H1A,1.55
2,H1C,2.12
3,H1D,1.53
4,H1E,1.26
5,H1F,1.59
6,H1G,1.05
7,H1I,1.34
8,H1K,1.42
9,H1L,1.36
10,H1M,1.68
11,H1N,1.45
12,H1P,1.31
13,H1Q,1.38
14,H1R,1.63
15,H1S,1.5
16,H1T,1.45
17,H1W,1.75
18,H1Y,1.59
19,E2A,1.14
20,E2D,1.16
21,E2F,1.27
22,E2G,0.782
23,E2H,1.05
24,E2I,1.4
25,E2K,1.15
26,E2L,1.59

row,Variant,folding stability dG [kcal/mol]
1,E2M,1.46
2,E2N,1.22
3,E2P,0.758
4,E2Q,1.25
5,E2R,0.9
6,E2S,1.09
7,E2V,1.23
8,E2W,1.65
9,E2Y,1.32
10,R3A,0.434
11,R3D,0.418
12,R3E,0.651
13,R3F,1.66
14,R3G,0.193
15,R3H,1.18
16,R3I,1.63
17,R3K,1.03
18,R3L,1.61
19,R3M,0.994
20,R3N,0.899
21,R3Q,0.786
22,R3S,0.487
23,R3T,1.06
24,R3V,1.34
25,R3W,1.59
26,R3Y,1.69

row,Variant,folding stability dG [kcal/mol]
1,A4D,1.35
2,A4E,1.35
3,A4F,1.12
4,A4G,0.783
5,A4H,1.35
6,A4I,1.53
7,A4K,1.68
8,A4L,1.49
9,A4M,1.66
10,A4N,1.31
11,A4P,0.222
12,A4Q,1.63
13,A4S,1.06
14,A4T,1.46
15,A4V,1.23
16,A4W,1.7
17,A4Y,1.4
18,L5A,1.6
19,L5D,1
20,L5F,1.19
21,L5G,1.16
22,L5H,1.61
23,L5I,1.41
24,L5K,1.6
25,L5M,1.83
26,L5N,1.11

row,Variant,folding stability dG [kcal/mol]
1,L5P,-0.071
2,L5Q,1.61
3,L5R,1.79
4,L5S,1.48
5,L5T,1.27
6,L5V,1.29
7,L5W,2.06
8,L5Y,1.23
9,M6A,0.574
10,M6D,0.383
11,M6E,0.023
12,M6F,-0.384
13,M6G,-0.19
14,M6H,0.07
15,M6I,1.8
16,M6K,-0.045
17,M6L,1.46
18,M6N,-0.861
19,M6Q,0.35
20,M6R,0.36
21,M6S,0.112
22,M6T,0.188
23,M6V,0.718
24,M6W,0.832
25,M6Y,-0.185
26,V7A,0.946

row,Variant,folding stability dG [kcal/mol]
1,V7C,1.96
2,V7D,-0.144
3,V7E,1.11
4,V7F,1.42
5,V7G,0.569
6,V7H,1.09
7,V7I,1.78
8,V7K,1.05
9,V7L,2.05
10,V7M,1.59
11,V7N,0.506
12,V7P,-0.01
13,V7Q,1.03
14,V7R,1.55
15,V7S,0.086
16,V7T,0.591
17,V7W,1.96
18,V7Y,1.67
19,N8D,1.45
20,N8E,1.56
21,N8F,1.21
22,N8G,1.23
23,N8H,1.47
24,N8I,1.84
25,N8K,2.4
26,N8L,1.75

row,Variant,folding stability dG [kcal/mol]
1,N8M,1.67
2,N8Q,2.12
3,N8R,2.01
4,N8S,1.67
5,N8T,1.92
6,N8V,1.77
7,N8W,1.34
8,N8Y,1.38
9,R9A,-0.164
10,R9C,1.19
11,R9E,0.136
12,R9F,0.77
13,R9G,-0.612
14,R9H,0.157
15,R9I,0.734
16,R9K,0.551
17,R9L,0.938
18,R9M,0.818
19,R9Q,0.621
20,R9S,-0.602
21,R9T,-0.04
22,R9V,-0.415
23,R9W,0.91
24,R9Y,0.605
25,L10F,-0.248
26,L10I,0.954

row,Variant,folding stability dG [kcal/mol]
1,L10M,-0.327
2,L10V,0.163
3,L10W,-0.405
4,L10Y,0.292
5,Q11A,1.54
6,Q11C,2.24
7,Q11D,0.958
8,Q11E,1.08
9,Q11F,1.23
10,Q11G,0.69
11,Q11H,1.38
12,Q11I,2.12
13,Q11K,2.12
14,Q11L,1.69
15,Q11M,1.73
16,Q11N,1.34
17,Q11R,2.14
18,Q11S,1.1
19,Q11T,1.09
20,Q11V,1.48
21,Q11W,1.5
22,Q11Y,1.41
23,K12A,1.36
24,K12D,1
25,K12F,2.26
26,K12G,-0.272

row,Variant,folding stability dG [kcal/mol]
1,K12H,1.37
2,K12I,1.43
3,K12L,1.53
4,K12M,1.49
5,K12N,1.01
6,K12Q,1.71
7,K12R,1.3
8,K12S,0.811
9,K12T,1.3
10,K12V,1.43
11,K12W,2.78
12,K12Y,2.31
13,L13C,-0.58
14,L13I,1.07
15,L13V,0.655
16,T14A,1.32
17,T14D,0.505
18,T14E,1.19
19,T14F,0.771
20,T14G,0.779
21,T14H,0.917
22,T14I,1.35
23,T14K,1.34
24,T14L,1.13
25,T14M,1.21
26,T14N,1.39

row,Variant,folding stability dG [kcal/mol]
1,T14Q,0.979
2,T14R,1.3
3,T14S,1.03
4,T14V,0.832
5,T14W,0.988
6,T14Y,1.15
7,R15A,1.32
8,R15D,1.01
9,R15E,1.42
10,R15F,0.829
11,R15G,0.365
12,R15H,1.12
13,R15I,1.14
14,R15L,1.31
15,R15M,1.33
16,R15N,1
17,R15Q,1.48
18,R15T,0.631
19,R15V,0.95
20,R15W,0.914
21,R15Y,0.918
22,M16A,0.312
23,M16F,0.018
24,M16H,-0.229
25,M16I,0.699
26,M16K,0.733

row,Variant,folding stability dG [kcal/mol]
1,M16L,1.35
2,M16Q,-0.015
3,M16R,0.261
4,M16S,-0.421
5,M16W,1.26
6,M16Y,0.489
7,L17A,-0.037
8,L17C,-0.743
9,L17I,1.09
10,L17M,0.852
11,L17N,0.006
12,L17Q,-0.895
13,L17R,-0.68
14,L17S,-0.127
15,L17V,-0.191
16,L17Y,0.234
17,R18A,1.45
18,R18D,0.512
19,R18E,0.715
20,R18F,0.738
21,R18G,0.577
22,R18H,0.59
23,R18I,0.881
24,R18K,1.36
25,R18L,1.2
26,R18M,1.29

row,Variant,folding stability dG [kcal/mol]
1,R18N,0.669
2,R18Q,1.19
3,R18S,0.989
4,R18T,0.657
5,R18V,0.181
6,R18W,0.417
7,R18Y,0.492
8,V19A,1.21
9,V19D,1.13
10,V19E,1.19
11,V19F,1.51
12,V19G,1.34
13,V19H,1.38
14,V19I,1.51
15,V19K,1.55
16,V19L,1.48
17,V19M,1.37
18,V19N,1.44
19,V19Q,1.41
20,V19R,1.55
21,V19S,1.23
22,V19T,1.37
23,V19W,1.21
24,V19Y,1.57
25,H20A,0.952
26,H20D,1.3

row,Variant,folding stability dG [kcal/mol]
1,H20E,0.232
2,H20F,1.39
3,H20G,-0.186
4,H20I,1.06
5,H20K,1.57
6,H20L,0.97
7,H20M,1.06
8,H20N,1.26
9,H20Q,0.946
10,H20R,1.19
11,H20S,1.26
12,H20T,1.13
13,H20V,0.774
14,H20W,1.39
15,H20Y,1.47
16,P21A,1.18
17,P21C,0.966
18,P21D,1.37
19,P21E,1.09
20,P21F,2.15
21,P21G,0.843
22,P21H,1.57
23,P21I,0.664
24,P21K,1.04
25,P21L,0.688
26,P21M,1.13

row,Variant,folding stability dG [kcal/mol]
1,P21N,1.51
2,P21Q,1.36
3,P21R,0.878
4,P21T,0.908
5,P21V,0.805
6,P21W,2.02
7,P21Y,2.16
8,D22A,0.299
9,D22E,0.749
10,D22F,1.07
11,D22G,0.117
12,D22H,1.3
13,D22I,0.677
14,D22K,1.23
15,D22L,1.22
16,D22M,0.675
17,D22N,1.67
18,D22R,1.06
